From patent publication US20250376528A1

Target: human IL-10 receptor (hIL-10R α and β chains) on HEK-Blue IL-10 reporter cells (human) (UniProt Q13651)
Test: cell-based or functional assay

human IL-10 receptor (hIL-10R α and β chains) on HEK-Blue IL-10 reporter cells (human), sequence (Q13651 22-578, chain 1 of 2): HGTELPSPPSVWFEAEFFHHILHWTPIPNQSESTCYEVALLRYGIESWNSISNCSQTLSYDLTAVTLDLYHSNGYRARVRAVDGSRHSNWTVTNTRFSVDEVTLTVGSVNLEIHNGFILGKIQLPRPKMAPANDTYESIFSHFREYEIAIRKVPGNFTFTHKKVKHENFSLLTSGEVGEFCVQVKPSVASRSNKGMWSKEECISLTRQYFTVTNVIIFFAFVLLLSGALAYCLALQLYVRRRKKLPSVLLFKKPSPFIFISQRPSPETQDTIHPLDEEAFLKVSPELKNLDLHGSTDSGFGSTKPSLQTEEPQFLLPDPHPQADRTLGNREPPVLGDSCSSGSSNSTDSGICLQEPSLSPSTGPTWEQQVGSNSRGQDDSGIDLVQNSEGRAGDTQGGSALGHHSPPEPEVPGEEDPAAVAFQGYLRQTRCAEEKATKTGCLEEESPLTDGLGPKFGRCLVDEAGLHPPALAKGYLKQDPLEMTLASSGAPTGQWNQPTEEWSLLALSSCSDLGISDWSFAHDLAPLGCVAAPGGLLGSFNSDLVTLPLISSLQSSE
human IL-10 receptor (hIL-10R α and β chains) on HEK-Blue IL-10 reporter cells (human), sequence (Q08334 20-325, chain 2 of 2, further chain): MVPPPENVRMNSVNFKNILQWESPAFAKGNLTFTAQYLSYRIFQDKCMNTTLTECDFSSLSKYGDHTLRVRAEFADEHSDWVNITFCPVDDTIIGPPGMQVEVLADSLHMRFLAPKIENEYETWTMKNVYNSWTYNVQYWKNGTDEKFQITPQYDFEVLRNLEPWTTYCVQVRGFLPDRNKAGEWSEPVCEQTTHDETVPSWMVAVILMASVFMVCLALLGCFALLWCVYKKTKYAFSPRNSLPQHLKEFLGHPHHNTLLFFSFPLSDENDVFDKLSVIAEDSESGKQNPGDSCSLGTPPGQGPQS

- Abs 630 (25 nM): 2.08 Abs 630
- Abs 630 (100 nM): 2.04 Abs 630
Substance: Recombinant Animal-Free Human IL-10 (Shenandoah Biotechnology, Catalog No. 100-83AF) (from UniProt P22301 19-178) (ligand)
